Results from IntAct's records for PubMed 21258410.

B1: Mothers against decapentaplegic homolog 7 (Homo sapiens), O15105 (parent)
chain: MFRTKRSALVRRLWRSRAPGGEDEEEGAGGGGGGGELRGEGATDSRAHGAGGGGPGRAGCCLGKAVRGAKGHHHPHPPAAGAGAAGGAEADLKALTHSVLKKLKERQLELLLQAVESRGGTRTACLLLPGRLDCRLGPGAPAGAQPAQPPSSYSLPLLLCKVFRWPDLRHSSEVKRLCCCESYGKINPELVCCNPHHLSRLCELESPPPPYSRYPMDFLKPTADCPDAVPSSAETGGTNYLAPGGLSDSQLLLEPGDRSHWCVVAYWEEKTRVGRLYCVQEPSLDIFYDLPQGNGFCLGQLNSDNKSQLVQKVRSKIGCGIQLTREVDGVWVYNRSSYPIFIKSATLDNPDSRTLLVHKVFPGFSIKAFDYEKAYSLQRPNDHEFMQQPWTGFTVQISFVKGWGQCYTRQFISSCPCWLEVIFNSR

Variants of: B1
Settings: with wwp2_human WWP2, O00308
wwp2_human WWP2, O00308, sequence (O00308 whole entry): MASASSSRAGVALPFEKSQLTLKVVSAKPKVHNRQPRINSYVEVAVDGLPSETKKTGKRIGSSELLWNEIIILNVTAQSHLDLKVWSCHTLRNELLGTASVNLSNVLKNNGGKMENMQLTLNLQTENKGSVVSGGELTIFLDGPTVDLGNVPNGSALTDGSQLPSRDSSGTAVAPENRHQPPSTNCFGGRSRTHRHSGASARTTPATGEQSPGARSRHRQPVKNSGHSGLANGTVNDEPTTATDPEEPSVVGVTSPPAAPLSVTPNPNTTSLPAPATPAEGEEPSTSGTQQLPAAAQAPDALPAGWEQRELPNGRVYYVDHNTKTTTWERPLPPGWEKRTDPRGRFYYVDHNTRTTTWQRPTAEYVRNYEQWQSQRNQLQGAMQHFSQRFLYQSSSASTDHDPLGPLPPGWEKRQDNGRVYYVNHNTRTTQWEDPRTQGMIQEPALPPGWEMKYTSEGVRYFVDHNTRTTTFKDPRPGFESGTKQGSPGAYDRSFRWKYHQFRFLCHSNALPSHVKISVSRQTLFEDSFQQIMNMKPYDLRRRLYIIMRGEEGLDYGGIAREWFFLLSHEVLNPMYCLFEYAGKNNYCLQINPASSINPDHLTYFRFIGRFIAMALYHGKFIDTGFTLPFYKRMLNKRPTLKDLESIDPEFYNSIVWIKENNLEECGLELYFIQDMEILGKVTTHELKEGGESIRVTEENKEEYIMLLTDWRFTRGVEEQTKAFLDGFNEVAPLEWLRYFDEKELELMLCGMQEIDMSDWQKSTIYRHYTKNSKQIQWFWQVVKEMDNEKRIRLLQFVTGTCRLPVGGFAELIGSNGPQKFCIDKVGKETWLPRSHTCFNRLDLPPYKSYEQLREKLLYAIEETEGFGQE

Variant	effect of a mutation on the interaction
P210G;Y211S	disrupting interaction
